IntAct's records for PubMed 17853893

B1: Programmed cell death 6-interacting protein (Homo sapiens), Q8WUM4 (parent)
chain: MATFISVQLKKTSEVDLAKPLVKFIQQTYPSGGEEQAQYCRAAEELSKLRRAAVGRPLDKHEGALETLLRYYDQICSIEPKFPFSENQICLTFTWKDAFDKGSLFGGSVKLALASLGYEKSCVLFNCAALASQIAAEQNLDNDEGLKIAAKHYQFASGAFLHIKETVLSALSREPTVDISPDTVGTLSLIMLAQAQEVFFLKATRDKMKDAIIAKLANQAADYFGDAFKQCQYKDTLPKEVFPVLAAKHCIMQANAEYHQSILAKQQKKFGEEIARLQHAAELIKTVASRYDEYVNVKDFSDKINRALAAAKKDNDFIYHDRVPDLKDLDPIGKATLVKSTPVNVPISQKFTDLFEKMVPVSVQQSLAAYNQRKADLVNRSIAQMREATTLANGVLASLNLPAAIEDVSGDTVPQSILTKSRSVIEQGGIQTVDQLIKELPELLQRNREILDESLRLLDEEEATDNDLRAKFKERWQRTPSNELYKPLRAEGTNFRTVLDKAVQADGQVKECYQSHRDTIVLLCKPEPELNAAIPSANPAKTMQGSEVVNVLKSLLSNLDEVKKEREGLENDLKSVNFDMTSKFLTALAQDGVINEEALSVTELDRVYGGLTTKVQESLKKQEGLLKNIQVSHQEFSKMKQSNNEANLREEVLKNLATAYDNFVELVANLKEGTKFYNELTEILVRFQNKCSDIVFARKTERDELLKDLQQSIAREPSAPSIPTPAYQSSPAGGHAPTPPTPAPRTMPPTKPQPPARPPPPVLPANRAPSATAPSPVGAGTAAPAPSQTPGSAPPPQAQGPPYPTYPGYPGYCQMPMPMGYNPYAYGQYNMPYPPVYHQSPGQAPYPGPQQPSYPFPQPPQQSYYPQQ
partner: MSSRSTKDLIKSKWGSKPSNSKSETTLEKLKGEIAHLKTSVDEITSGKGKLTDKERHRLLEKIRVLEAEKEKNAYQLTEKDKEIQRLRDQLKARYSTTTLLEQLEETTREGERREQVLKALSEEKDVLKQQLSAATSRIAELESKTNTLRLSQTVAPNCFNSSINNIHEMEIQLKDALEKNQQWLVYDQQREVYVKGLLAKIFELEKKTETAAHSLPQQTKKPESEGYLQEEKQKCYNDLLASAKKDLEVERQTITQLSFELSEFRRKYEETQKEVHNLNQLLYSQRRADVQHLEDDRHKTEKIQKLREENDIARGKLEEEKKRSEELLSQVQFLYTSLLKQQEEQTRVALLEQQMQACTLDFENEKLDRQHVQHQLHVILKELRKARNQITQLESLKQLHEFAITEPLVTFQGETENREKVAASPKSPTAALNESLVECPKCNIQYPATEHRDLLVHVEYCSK

Variants of: B1
Conditions: with cep55_human CEP55, Q53EZ4

Row | Variant | effect of a mutation on the interaction
1 | G800A;P801A;P802A | disrupting interaction strength
